In data set [1] the test system is DUX4 mRNA. As to the kind of experiment: QPCR (SYBR green) of DUX4 mRNA in co-transfected HEK293 cells. It is filed as cell-based, human. The settings on record: 3 to 1 ratio with DUX4 construct, normalized to egfp, relative to milacZ. As to the method: H1.mir-675 construct was transfected in a 3 to 1 ratio with DUX4 construct in HEK293 cells, and collected RNA extracts 24 and 48h after transfection. Total RNA was prepared using the miRVANA isolation kit. DUX4 and egfp (used as the reference gene) mRNA levels were determined using the SYBR green master mix as described in materials and methods. All values were normalized to egfp, and were reported relative to milacZ treated samples. At 24 and 48h after transfection, DUX4 levels decreased by an average of 37±2% (P<0.0001, ANOVA, N=3) and 51±2% (P<0.0001, ANOVA, N=3), respectively. Results were reported as the average relative DUX4 expression±SEM of three replicates. […] When compared to the milacZ sample, mir-675-5p overexpressed levels were ˜2000-fold higher (P<0.0001, ANOVA, N=3). Results were reported as the average relative mir-675-5p expression (2^−ΔCq)±SEM of three replicates.

Data set [2] relates to pri-mir-675. As to the kind of experiment: TaqMan QRT-PCR of pri-mir-675 from transfected constructs in HEK293 cells. The settings on record: 24 h post-transfection. It is filed as cell-based, human. The text has this:
RNA Extraction. RNA from HEK293 cells was extracted for Northern blot assay and QPCR. The miRVANA miRNA isolation kit (ThermoFisher Scientific) was used according to manufacturer's directions to extract total RNA encompassing small RNAs, such as miRNAs. To extract RNA from C57BL/6 skeletal muscles, cryopreserved muscles were crushed under suboptimal temperatures using liquid nitrogen and using mortar and pestle. Crushed muscles were then lysed using […] of miRVANA miRNA isolation kit lysis buffer, a TissueLyser and 1.0 mm zirconia beads (Biospec). Muscle was homogenized at 30 Hz for 30 sec with 10 sec rest. This was repeated 3 times.
TaqMan Gene Expression Assay. QRT-PCR was carried out to quantify the expression of pri-mir-675, mir-675-5p and mi405 using TaqMan probes (ThermoFisher Scientific). Experiments were started by eliminating genomic DNA from the RNA preparations, and then cDNA was generated using the High-Capacity cDNA Reverse Transcription Kit (Applied Biosystems) following manufacturer's instructions. Within the same cDNA reaction, 1×RT random hexamer primers were used to generate the cDNA for RPL13A, used as a reference gene, and for pri-mir-675. To generate the cDNA for mir-675, the RT mir-675 reverse primer provided by ThermoFisher Scientific was used. For mi405, the mi405 qPCR protocol was done as it was previously described [Wallace et al., Mol. Ther. Methods Clin. Dev. 8: 121-30 (2018)]. To quantify mir-675 and mi405 levels, RNA was extracted using the total RNA protocol for the mirVana miRNA Isolation Kit (Ambion) from HEK293 cells. cDNA was generated using the High-Capacity cDNA Reverse Transcription Kit (Applied Biosystems) using a mix of random hexamer primers and specific reverse primer for pri-mir-675 and mir-675-5p. For mi405, 200 nM of the stem-loop forming primer (5′-[…]-3′) (SEQ ID NO: 144) was also used for the RT step. A custom TaqMan assay (Applied Biosystems) including 1.5 μM of Forward primer (5′-[…]-3′) (SEQ ID NO: 145), 0.7 μM of Reverse primer (5′-GTGCAGGGTCCGAGGT-3′) (SEQ ID NO: 146), and 0.2 μM of mi405 probe (5′-6FAM-ATACGACGTCCAGGAT-3′) (SEQ ID NO: 147) was then run using the CFX Connect Real Time system apparatus (Bio-Rad). RPL13A (Mm02526700_g1; Applied Biosystems) served as the reference gene. The TaqMan gene expression assay consisted of using the TaqMan Gene Expression Master mix and TaqMan probes purchased from ThermoFisher Scientific. 1× of probe was mixed with 1× of the TaqMan Gene Expression Master mix (ThermoFisher Scientific), and with 20 ng of cDNA. The mir-675- and mi405-specific primers and probes were designed to quantify only the mir-675-5p and mi405 mature sequence (see TaqMan Gene Expression Master mix protocol).

B1: H1.mir-675: commercially available H1 promoter mir-675 expression plasmid (SBI Biosciences) (nucleic acid)
DNA: GAACGCTGACGTCATCAACCCGCTCCAAGGAATCGCGGGCCCAGTGTCACTAGGCGGGAACACCCAGCGCGCGTGCGCCCTGGCAGGAAGATGGCTGTGAGGGACAGGGGAGTGGCGCCCTGCAATATTTGCATGTCGCTATGTGTTCTGGGAAATCACCATAAACGTGAAATGTCTTTGGATTTGGGAATCTTATAAGTTCTGTATGAGACCACCCCCCAGGGTCTGGTGCGGAGAGGGCCCACAGTGGACTTGGTGACGCTGTATGCCCTCACCGCTCAGCCCCTGGGGAATTCTTCGATTCTGCTTTTTT
On to B1, for which the “decrease of DUX4 mRNA levels” value in data set [1] (24 h) came to 37±2%; in data set [1] (48 h) it was 51±2%. The “pri-mir-675 levels compared to U6.mir-675” value in data set [2] worked out at 320±43%.
